Source: article PMC4908968

How the values were obtained:
[1] = target: Full-length (FL) MMTV integrase (IN), wild type (mouse mammary tumor virus (MMTV)); experiment: AUC
[2] = target: Full-length (FL) MMTV integrase (IN), wild type (mouse mammary tumor virus (MMTV)); experiment: SEC

Work on “Full-length (FL) MMTV integrase (IN), wild type (enzyme)” yielded a stoichiometry N [1] of 8 and a stoichiometry N [2] of 2.
